Reference: article PMC10540216, “Activity Guided Azide-methyllysine Photo-trapping for Substrate Profiling of Lysine Demethylases” (Journal of the American Chemical Society, 2023)

B1: MCM4_HUMAN (protein, UniProt P33991 2-863, looked up)
DNA replication licensing …: SSPASTPSRRGSRRGRATPAQTPRSEDARSSPSQRRRGEDSTSTGELQPMPTSPGVDLQSPAAQDVLFSSPPQMHSSAIPLDFDVSSPLTYGTPSSRVEGTPRSGVRGTPVRQRPDLGSAQKGLQVDLQSDGAAAEDIVASEQSLGQKLVIWGTDVNVAACKENFQRFLQRFIDPLAKEEENVGIDITEPLYMQRLGEINVIGEPFLNVNCEHIKSFDKNLYRQLISYPQEVIPTFDMAVNEIFFDRYPDSILEHQIQVRPFNALKTKNMRNLNPEDIDQLITISGMVIRTSQLIPEMQEAFFQCQVCAHTTRVEMDRGRIAEPSVCGRCHTTHSMALIHNRSLFSDKQMIKLQESPEDMPAGQTPHTVILFAHNDLVDKVQPGDRVNVTGIYRAVPIRVNPRVSNVKSVYKTHIDVIHYRKTDAKRLHGLDEEAEQKLFSEKRVELLKELSRKPDIYERLASALAPSIYEHEDIKKGILLQLFGGTRKDFSHTGRGKFRAEINILLCGDPGTSKSQLLQYVYNLVPRGQYTSGKGSSAVGLTAYVMKDPETRQLVLQTGALVLSDNGICCIDEFDKMNESTRSVLHEVMEQQTLSIAKAGIICQLNARTSVLAAANPIESQWNPKKTTIENIQLPHTLLSRFDLIFLLLDPQDEAYDRRLAHHLVALYYQSEEQAEEELLDMAVLKDYIAYAHSTIMPRLSEEASQALIEAYVDMRKIGSSRGMVSAYPRQLESLIRLAEAHAKVRLSNKVEAIDVEEAKRLHREALKQSATDPRTGIVDISILTTGMSATSRKRKEELAEALKKLILSKGKTPALKYQQLFEDIRGQSDIAITKDMFEEALRALADDDFLTVTGKTVRLL
B2: DDX17_HUMAN (protein, UniProt Q92841 1-729, looked up)
Probable ATP-dependent RNA …: MPTGFVAPILCVLLPSPTREAATVASATGDSASERESAAPAAAPTAEAPPPSVVTRPEPQALPSPAIRAPLPDLYPFGTMRGGGFGDRDRDRDRGGFGARGGGGLPPKKFGNPGERLRKKKWDLSELPKFEKNFYVEHPEVARLTPYEVDELRRKKEITVRGGDVCPKPVFAFHHANFPQYVMDVLMDQHFTEPTPIQCQGFPLALSGRDMVGIAQTGSGKTLAYLLPAIVHINHQPYLERGDGPICLVLAPTRELAQQVQQVADDYGKCSRLKSTCIYGGAPKGPQIRDLERGVEICIATPGRLIDFLESGKTNLRRCTYLVLDEADRMLDMGFEPQIRKIVDQIRPDRQTLMWSATWPKEVRQLAEDFLRDYTQINVGNLELSANHNILQIVDVCMESEKDHKLIQLMEEIMAEKENKTIIFVETKRRCDDLTRRMRRDGWPAMCIHGDKSQPERDWVLNEFRSGKAPILIATDVASRGLDVEDVKFVINYDYPNSSEDYVHRIGRTARSTNKGTAYTFFTPGNLKQARELIKVLEEANQAINPKLMQLVDHRGGGGGGGGRSRYRTTSSANNPNLMYQDECDRRLRGVKDGGRRDSASYRDRSETDRAGYANGSGYGSPNSAFGAQAGQYTYGQGTYGAAAYGTSSYTAQEYGAGTYGASSTTSTGRSSQSSSQQFSGIGRSGQQPQPLMSQQFAQPPGATNMIGYMGQTAYQYPPPPPPPPPSRK
B3: U2AF2_HUMAN (protein, UniProt P26368 2-475, looked up)
Splicing factor U2AF 65 kDa …: SDFDEFERQLNENKQERDKENRHRKRSHSRSRSRDRKRRSRSRDRRNRDQRSASRDRRRRSKPLTRGAKEEHGGLIRSPRHEKKKKVRKYWDVPPPGFEHITPMQYKAMQAAGQIPATALLPTMTPDGLAVTPTPVPVVGSQMTRQARRLYVGNIPFGITEEAMMDFFNAQMRLGGLTQAPGNPVLAVQINQDKNFAFLEFRSVDETTQAMAFDGIIFQGQSLKIRRPHDYQPLPGMSENPSVYVPGVVSTVVPDSAHKLFIGGLPNYLNDDQVKELLTSFGPLKAFNLVKDSATGLSKGYAFCEYVDINVTDQAIAGLNGMQLGDKKLLVQRASVGAKNATLVSPPSTINQTPVTLQVPGLMSSQVQMGGHPTEVLCLMNMVLPEELLDDEEYEEIVEDVRDECSKYGLVKSIEIPRPVDGVEVPGCGKIFVEFTSVFDCQKAMQGLTGRKFANRVVVTKYCDPDSYHRRDFW
B4: SEPT9_HUMAN (protein, UniProt Q9UHD8 1-586, looked up)
Septin-9: MKKSYSGGTRTSSGRLRRLGDSSGPALKRSFEVEEVETPNSTPPRRVQTPLLRATVASSTQKFQDLGVKNSEPSARHVDSLSQRSPKASLRRVELSGPKAAEPVSRRTELSIDISSKQVENAGAIGPSRFGLKRAEVLGHKTPEPAPRRTEITIVKPQESAHRRMEPPASKVPEVPTAPATDAAPKRVEIQMPKPAEAPTAPSPAQTLENSEPAPVSQLQSRLEPKPQPPVAEATPRSQEATEAAPSCVGDMADTPRDAGLKQAPASRNEKAPVDFGYVGIDSILEQMRRKAMKQGFEFNIMVVGQSGLGKSTLINTLFKSKISRKSVQPTSEERIPKTIEIKSITHDIEEKGVRMKLTVIDTPGFGDHINNENCWQPIMKFINDQYEKYLQEEVNINRKKRIPDTRVHCCLYFIPATGHSLRPLDIEFMKRLSKVVNIVPVIAKADTLTLEERVHFKQRITADLLSNGIDVYPQKEFDEDSEDRLVNEKFREMIPFAVVGSDHEYQVNGKRILGRKTKWGTIEVENTTHCEFAYLRDLLIRTHMQNIKDITSSIHFEAYRVKRLNEGSSAMANGMEEKEPEAPEM
B5: SF01_HUMAN (protein, UniProt Q15637 2-639, looked up)
Splicing factor 1: ATGANATPLDFPSKKRKRSRWNQDTMEQKTVIPGMPTVIPPGLTREQERAYIVQLQIEDLTRKLRTGDLGIPPNPEDRSPSPEPIYNSEGKRLNTREFRTRKKLEEERHNLITEMVALNPDFKPPADYKPPATRVSDKVMIPQDEYPEINFVGLLIGPRGNTLKNIEKECNAKIMIRGKGSVKEGKVGRKDGQMLPGEDEPLHALVTANTMENVKKAVEQIRNILKQGIETPEDQNDLRKMQLRELARLNGTLREDDNRILRPWQSSETRSITNTTVCTKCGGAGHIASDCKFQRPGDPQSAQDKARMDKEYLSLMAELGEAPVPASVGSTSGPATTPLASAPRPAAPANNPPPPSLMSTTQSRPPWMNSGPSESRPYHGMHGGGPGGPGGGPHSFPHPLPSLTGGHGGHPMQHNPNGPPPPWMQPPPPPMNQGPHPPGHHGPPPMDQYLGSTPVGSGVYRLHQGKGMMPPPPMGMMPPPPPPPSGQPPPPPSGPLPPWQQQQQQPPPPPPPSSSMASSTPLPWQQNTTTTTTSAGTGSIPPWQQQQAAAAASPGAPQMQGNPTMVPLPPGVQPPLPPGAPPPPPPPPPGSAGMMYAPPPPPPPPMDPSNFVTMMGMGVAGMPPFGMPPAPPPPPPQN
B6: GCSP_HUMAN (protein, UniProt P23378 36-1020, looked up)
Glycine dehydrogenase …: DSSSGGGDSAAAGASRLLERLLPRHDDFARRHIGPGDKDQREMLQTLGLASIDELIEKTVPANIRLKRPLKMEDPVCENEILATLHAISSKNQIWRSYIGMGYYNCSVPQTILRNLLENSGWITQYTPYQPEVSQGRLESLLNYQTMVCDITGLDMANASLLDEGTAAAEALQLCYRHNKRRKFLVDPRCHPQTIAVVQTRAKYTGVLTELKLPCEMDFSGKDVSGVLFQYPDTEGKVEDFTELVERAHQSGSLACCATDLLALCILRPPGEFGVDIALGSSQRFGVPLGYGGPHAAFFAVRESLVRMMPGRMVGVTRDATGKEVYRLALQTREQHIRRDKATSNICTAQALLANMAAMFAIYHGSHGLEHIARRVHNATLILSEGLKRAGHQLQHDLFFDTLKIQCGCSVKEVLGRAAQRQINFRLFEDGTLGISLDETVNEKDLDDLLWIFGCESSAELVAESMGEECRGIPGSVFKRTSPFLTHQVFNSYHSETNIVRYMKKLENKDISLVHSMIPLGSCTMKLNSSSELAPITWKEFANIHPFVPLDQAQGYQQLFRELEKDLCELTGYDQVCFQPNSGAQGEYAGLATIRAYLNQKGEGHRTVCLIPKSAHGTNPASAHMAGMKIQPVEVDKYGNIDAVHLKAMVDKHKENLAAIMITYPSTNGVFEENISDVCDLIHQHGGQVYLDGANMNAQVGICRPGDFGSDVSHLNLHKTFCIPHGGGGPGMGPIGVKKHLAPFLPNHPVISLKRNEDACPVGTVSAAPWGSSSILPISWAYIKMMGGKGLKQATETAILNANYMAKRLETHYRILFRGARGYVGHEFILDTRPFKKSANIEAVDVAKRLQDYGFHAPTMSWPVAGTLMVEPTESEDKAELDRFCDAMISIRQEIADIEEGRIDPRVNPLKMSPHSLTCVTSSHWDRPYSREVAAFPLPFVKPENKFWPTIARIDDIYGDQHLVCTCPPMEVYESPFSEQKRASS

Test system: KDM4A-I71AzF
Assay: CASI: photo-crosslinking with HEK293T cell extracts, StrepTactin enrichment and LC-MS/MS proteomics;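 further: lysates from HEK293T cells pretreated with a KDM4 inhibitor to raise proteome methylation, affinity-purified after ±UV, gel-resolved, trypsin-digested, with exclusive unique peptides per protein averaged per condition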
Format: binding, human
Details: sheet "Final results but with 0.01"

Molecule	Fold change (+UV/-UV)
B1	0.5
B2	1
B3	2
B4	0.6667
B5	0.9
B6	6
